# Values of other authors, collected in US11807856B2, “Recombinant Pichia pastoris strain and method for producing active pediocin PA-1” (VIET NAM NATIONAL UNIVERSITY HO CHI MINH CITY, priority 2019, dated 2023).
# Where two headings read alike, the source gives them in different places. Ends that are not written are not given here.
# Tests used:
# [1] = pH 2-8
# [2] = for activity after heat treatment: 100° C. for 60 minutes (1 hour); for antimicrobial activities after heat treatment: 121° C.
substance,measurement,setting,value
"native pediocin PA-1: class IIa bacteriocin, 4.6 kDa peptide with 44 amino acids, produced by Pediococcus acidilactici PAC1.0 (KYYGNGVTCGKHSCSVDWGKATTCIINNGAMAWATGGHQGNHKC; ends and bridges not checked; cysteine pairing not given here; UniProt P29430 19-62, looked up)",time stable at pH levels of 2-8,[1],at least 2 hours
same,activity after heat treatment,[2]; listed as prior-art pediocin PA-1,stable
same,activity after heat treatment,[2]; produced by Pediococcus acidilactici PAC1.0,remain its full activities
same,antimicrobial activities after heat treatment,"[2]; 20 minutes treatment, listed as prior-art pediocin PA-1",lost all activity
same,antimicrobial activities after heat treatment,"[2]; 20 minutes treatment, produced by Pediococcus acidilactici PAC1.0",completely disappeared
same,antimicrobial activities after heat treatment,[2]; after 15 minutes,gradually reduced
